The text below walks through data of publication PMC3281585 (Science (New York, N.Y.), 2011).

The chains are these.
B1: gp62 protein of the T4 clamp loader (natural protein, bacteriophage T4)
chain: SLFKDDIQLNEHQVAWYSKDWTAVQSAADSFKEKAENEFFEIIGAINNKTKCSIAQKDYSKFMVENALSQFPECMPAVYAMNLIGSGLSDEAHFNYLMAAVPRGKRYGKWAKLVEDSTEVLIIKLLAKRYQVNTNDAINYKSILTKNGKLPLVLKELKGLVTDDFLKEVTKNVKEQKQLKKLALEW
B2: gp44 protein of the T4 clamp loader (natural protein, bacteriophage T4)
chain: MITVNEKEHILEQKYRPSTIDECILPAFDKETFKSITSKGKIPHIILHSPSPGTGKTTVAKALCHDVNADMMFVNGSDCKIDFVRGPLTNFASAASFDGRQKVIVIDEFDRSGLAESQRHLRSFMEAYSSNCSIIITANNIDGIIKPLQSRCRVITFGQPTDEDKIEMMKQMIRRLTEICKHEGIAIADMKVVAALVKKNFPDFRKTIGELDSYSSKGVLDAGILSLVTNDRGAIDDVLESLKNKDVKQLRALAPKYAADYSWFVGKLAEEIYSRVTPQSIIRMYEIVGENNQYHGIAANTELHLAYLFIQLACEMQWK

Series [1] has as its target B2. Put plainly: crystal structure.
The series “crystal structure” concerns the molecule itself. Put plainly: crystal structure.

As to B1, the binding result in series [1] is recorded as “binds”. In the case of B2, the binding result in the series “crystal structure” was “binds”.
